The results in this text go back to publication doi:10.1101/2023.03.09.531992.

For assay [1], the target named is clientized GST-S tail construct Thr1273Asp (SARS-CoV-2 S, Leu1244 to Thr1273) (SARS-CoV-2) (UniProt P0DTC2). The experiment in a line: pull-down.
Assay [2] has as its target clientized GST-S tail construct Thr1273Glu (SARS-CoV-2 S, Leu1244 to Thr1273) (SARS-CoV-2) (UniProt P0DTC2). The assay can be described thus: pull-down.

For the substance “endogenous coatomer complex (COPI), mouse liver cytosol, Q8CIE6;Q9JIF7;O55029;Q9QZE5;Q5XJY5;O89079;P61924”, the fold binding against the Lys-x-Lys-x-xCT dibasic mutant in assay [1] and in assay [2] was 2 fold each time. For the same substance, the fold higher affinity than the wild-type GST-S tail construct in assay [1] and in assay [2] was 17 fold in each case.
